Oligonucleotides are written 5' to 3', each unit as a sugar letter and its base; * is a phosphorothioate linkage, no mark a phosphodiester; rarer units and linkages stand in square brackets, end groups in braces. Plain capitals give the bases only. d = 2'-deoxy (DNA)
B1: 50-30 P: asymmetric PAM strand ssDNA donor, EmGFP, SEQ ID 65 (nucleic acid)
DNA: CCACCGGCAAGCTGCCCGTGCCCTGGCCCACCCTCGTGACCACCTTCACCTACGGCGTGCAGTGCTTCGCCCGCTACCCCG
modifications: DNA, backbone and methylation of C not given here; further chemistry not fully specified
B2: 36-3′: dsDNA donor with 36-base 3′ overhangs, annealed SEQ ID 93 and 94 (nucleic acid)
chain 1: dA*dA*dGdAdAdTdTdCdTdTdGdTdCdGdTdCdAdTdCdGdTdCdTdTdTdGdTdAdGdTdCdGdGdTdCdAdGdGdGdTdGdGdTdCdAdCdGdAdGdGdGdTdGdGdGdCdCdAdGdGdGdCdAdCdG*dG*dG
chain 2: dG*dA*dCdTdAdCdAdAdAdGdAdCdGdAdTdGdAdCdGdAdCdAdAdGdAdAdTdTdCdTdTdAdCdGdGdCdGdTdGdCdAdGdTdGdCdTdTdCdAdGdCdCdGdCdTdAdCdCdCdCdGdAdCdC*dA*dC
modifications: further chemistry not fully specified
B3: 48-50 NP: symmetric non-PAM strand ssDNA donor, EmGFP, SEQ ID 70 (nucleic acid)
DNA: GTGCTGCTTCATGTGGTCGGGGTAGCGGGCGAAGCACTGCACGCCGTAGGTGAAGGTGGCACGAGGGTGGGCCAGGGCACGGGCAGCTTGCCGGTGG
modifications: DNA, backbone and methylation of C not given here; further chemistry not fully specified
B4: PS79: phosphorothioate 79-mer PAM ssDNA donor, EmGFP, SEQ ID 38 (nucleic acid)
DNA: CATGTGGTCGGGGTAGCGGGCGAAGCACTGCACGCCGTAGGTGAAGGTGGTCACGAGGGTGGGCCAGGGCACGGGCAGC
modifications: 5' phosphate, modified ends, chemistry not fully specified
B5: 79: unmodified 79-mer PAM ssDNA donor, EmGFP, SEQ ID 39 (nucleic acid)
DNA: B4 DNA
modifications: DNA, backbone not given here
B6: 30-51 NP: asymmetric non-PAM strand ssDNA donor, EmGFP, SEQ ID 68 (nucleic acid)
DNA: GCTGCTTCATGTGGTCGGGGTAGCGGGCGAAGCACTGCACGCCGTAGGTGAAGGTGGTCACGAGGGTGGGCCAGGGCACGG
modifications: chemistry not given here
B7: 24-3′: dsDNA donor with 24-base 3′ overhangs, annealed SEQ ID 89 and 90 (nucleic acid)
chain 1: dG*dA*dCdTdAdCdAdAdAdGdAdCdGdAdTdGdAdCdGdAdCdAdAdGdAdAdTdTdCdTdTdAdCdGdGdCdGdTdGdCdAdGdTdGdCdTdTdCdAdGdCdCdGdCdTdAdCdC*dC*dC
chain 2: dA*dA*dGdAdAdTdTdCdTdTdGdTdCdGdTdCdAdTdCdGdTdCdTdTdTdGdTdAdGdTdCdGdGdTdCdAdGdGdGdTdGdGdTdCdAdCdGdAdGdGdGdTdGdGdGdC*dC*dA
modifications: further chemistry not fully specified
B8: 30-51 P: asymmetric PAM strand ssDNA donor, EmGFP, SEQ ID 67 (nucleic acid)
DNA: CCGTGCCCTGGCCCACCCTCGTGACCACCTTCACCTACGGCGTGCAGTGCTTCGCCCGCTACCCCGACCACATGAAGCAGC
modifications: chemistry not given here
B9: 50-30 NP: asymmetric non-PAM strand ssDNA donor, EmGFP, SEQ ID 66 (nucleic acid)
DNA: CGGGGTAGCGGGCGAAGCACTGCACGCCGTAGGTGAAGGTGGTCACGAGGGTGGGCCAGGGCACGGGCAGCTTGCCGGTGG
modifications: chemistry not given here

Columns and labels:
[1] = system: disrupted EmGFP stable cell lines; test: Homologous recombination (HDR) assay, gain of EmGFP function by flow cytometry; assay type: cell-based; conditions: for Avg (% GFP+ cells): sequential delivery
Procedure: The JUMP-IN™ system was used to prepare […]™ HEK293 stable cell expressing EmGFP (Thermo Fisher Scientific). The gene sequence of EmGFP is described in Table 5. To create a disrupted EmGFP mutant stable cell line, a gRNA targeting the 5′-[…]-3′ (SEQ ID NO: 125) sequence in EmGFP gene was synthesized. The resulting gRNA (300 ng) was incubated with 1.5 μg of GENEART® […]™ Cas9 nuclease and used to transfect wild type EmGFP cells via electroporation. The single cell clonal isolation was carried out by limiting dilution. The EmGFP loci from non-glowing cells were amplified by PCR using a forward primer 5′-[…]-3′ (SEQ ID NO: 126) and a reverse primer 5′-[…]-3′ (SEQ ID NO: 127) and the resulting PCR products were subjected to TOPO cloning and sequencing. From these clones, a disrupted EmGFP stable cell line containing a deletion of 5′-CACCTT-3′ (SEQ ID NO: 25) was identified (Table 5). In the homologous recombination assay, the gain of EmGFP function was determined by flow cytometric analysis.
(§1) To create homologous recombination (HR) assays, a series of gRNAs flanking the insertion site within the EmGFP gene were designed and synthesized (Table 4). Each individual gRNA was combined with GENEART™ […]™ Cas9 Nuclease to form the Cas9 protein/gRNA ribonucleoprotein complexes (Cas9 RNPs). The Cas9 RNPs were then used to transfect cells via NEON® electroporation. The genomic cleavage efficiency was then evaluated using the GENEART® Genomic Cleavage Detection kit at 48 hours post transfection. The gRNAs with highest editing efficiencies and also in close proximity to the insertion site were selected for the subsequent HR assays. For donor design of a single-stranded oligonucleotide, typically the mutation site was positioned at the center flanked by 30 to 50 nucleotides on each side. For asymmetric donor design, 30 nucleotides were placed on either the left or right arm and then 50 or 67 nucleotides on the right or left arm respectively, in both PAM and non-PAM strands. For design of a dsDNA oligonucleotide with single-stranded overhangs, the insertion element was overlapped in the center flanked by various lengths of ssDNA oligonucleotide on each side. By annealing two single-stranded oligonucleotides at 95° C. for 3 minutes, dsDNA donor molecules with either a 5′ protrusion or a 3′ protrusion were generated. To measure homologous recombination efficiency, the donor DNA was either co-transfected with Cas9 RNPs or delivered sequentially into cells via electroporation. At 48 hours post transfection, the gain of EmGFP function in reporter cell lines was determined by flow cytometric analysis with an Attune® NxT Acoustic Focusing Cytometer (Thermo Fisher Scientific). Alternatively, the genomic loci were PCR-amplified using the corresponding primers and then subjected to GENEART® Genomic Cleavage Detection assay or restriction digestion. The resulting PCR products were also subjected to TOPO cloning. Typically, 96 colonies were randomly picked for sequencing. The sequencing data were analyzed using VECTOR NTI ADVANCE® 11.5 software (Thermo Fisher Scientific).
For each homologous recombination assay, 1.5 μg of Cas9 protein and 360 ng of gRNA were added to Resuspension Buffer R to a final volume of 7 μl, but limiting the total volume of Cas9 protein plus gRNA to less than 1 μl. The gRNA could be diluted in Buffer R if the concentration was too high. Upon mixing, the sample was incubated at room temperature for 5 to 10 minutes to form Cas9 RNPs. Meanwhile, […]™ HEK293 cells expressing either eBFP or disrupted EmGFP were detached from culture flask with TRYPLE™ Express Enzyme and then counted. Aliquots of 1×10^6 cells were washed once with DPBS without Ca^2+ and Mg^2+ and the cell pellets were resuspended in 50 μl of Resuspension Buffer R. A 5 μl aliquot of cell suspension was mixed with 7 μl of Cas9 RNPs. […] The electroporated cells were transferred to 300 μl of […]. […]

[2] = system: eBFP locus in HEK293 cells expressing eBFP; test: EcoRI restriction digestion of PCR-amplified eBFP locus (FLAG tag/EcoRI insertion); assay type: cell-based; conditions: FIG. 11B, length of 3′ overhang, 48 hours
Description: FIG. 11. Insertion of a FLAG tag along with an EcoRI site using dsDNA donor with single-stranded overhangs. (A) Various donor DNA molecules containing a 30-base FLAG tag along with an EcoRI site were designed and synthesized, including single-stranded DNA donor (ssDNA), blunt-end dsDNA donor (blunt), dsDNA donor with 5′ overhang (5′), dsDNA donor with 3′ overhang (3′). The length of overhangs varied from 6 nucleotides (6), 15 nucleotides (15) to 30 nucleotides (30). The 3′ and 5′ ends of the oligonucleotides harbored two consecutive phosphorothioate-modified bases (Table 4). The short dsDNA donors with and without overhangs were prepared by annealing two short DNA oligonucleotides. […] At 48 hours post transfection, the eBFP locus was PCR-amplified. The resulting PCR fragments were analyzed by the genomic cleavage and detection assays to determine the percentage of Indel or subjected to restriction digestion with EcoRI to determine the percentage of digestion. (B) Length of 3′ overhang. […] Alternatively, a dsDNA donor with 30-base 3′ overhang but without phosphorothioate modification (30-3′n) was used. The percentage of digestion with EcoRI was determined at 48 hours post transfection. (C) Dose effect. […] The eBFP loci were PCR-amplified. The resulting PCR fragments were analyzed by EcoRI digest. (D) Sequencing verification. The PCR fragments were cloned into E. coli and 192 clones were randomly picked for sequencing. The relative percentage of wild type (wt), NHEJ, and HDR clones derived from either ssDNA donor (ssDNA) or dsDNA with 3′ overhangs (3′ overhang) was plotted. The white rectangles represented the population of clones that contained the insert but with a point mutation. Examples of edited clones were shown in (E) (not representing the actual percentages of NHEJ and HDR). The underlined sequences represented the FLAG tag along with an RI site. FIG. 11 discloses SEQ ID NOs: 15-24, respectively, from top to bottom.
as §1, with “The sequencing data were analyzed using VECTOR NTI ADVANCE® 11.5 software (Thermo Fisher Scientific).” left out

[3] = Equal Mass of donor, +5 gRNA, 6 nt insertion
[4] = Equal Molarity of donor, +5 gRNA, 6 nt insertion

Molecule | Avg (% GFP+ cells) [1, 3] | Avg (% GFP+ cells) [1, 4] | Avg (% GFP+ cells) ([1]; (+3) gRNA, 10 pmol ssDNA donor) | Avg (% GFP+ cells) ([1]; (+5) gRNA, 10 pmol ssDNA donor) | Avg (% GFP+ cells) ([1]; (−3) gRNA, 10 pmol ssDNA donor) | further results
40: unmodified 40-mer PAM ssDNA donor, EmGFP, SEQ ID 43 (DNA GGCGAAGCACTGCACGCCGTAGGTGAAGGTGGTCACGAGG; DNA, backbone not given here) [compound 40] | 2.96% | 1.38% | – | – | – | –
PS40: phosphorothioate 40-mer PAM ssDNA donor, EmGFP, SEQ ID 42 (DNA GGCGAAGCACTGCACGCCGTAGGTGAAGGTGGTCACGAGG; 5' phosphate, chemistry not fully specified) | 4.35% | 1.79% | – | – | – | –
B1 | – | – | 8.7% | 19.7% | 24.6% | –
B2 | – | – | – | – | – | Avg (% digestion) [2]: 41.7%
B3 | – | – | 9.5% | 26.0% | 18.3% | Avg (% GFP+ cells), normalized HDR efficiency (% EmGFP+ cells/% Indel) ([1]; (+5)gRNA): 38.2%; Avg (% GFP+ cells), normalized HDR efficiency (% EmGFP+ cells/% Indel) ([1]; (−3)gRNA): 26.1%
B4 | 12.94% | 12.53% | – | – | – | –
B5 | 7.99% | 7.62% | – | – | – | –
B6 | – | – | 11.3% | 20.6% | 23.7% | –
B7 | – | – | – | – | – | Avg (% digestion) [2]: 17.3%; Avg (% digestion) ([2]; listed as donor DNA molecules with 24-base 3′-protruded ends): approximately 15%
B8 | – | – | 4.0% | 30.6% | 34.7% | –
B9 | – | – | 4.1% | 30.8% | 30.0% | –

— patent US10428327B2, “Compositions and methods for enhancing homologous recombination” (LIFE TECHNOLOGIES CORPORATION, priority 2016, dated 2019)
